Source: US9850293B2, “Targeting trastuzumab-resistant HER2+ breast cancer with a HER3-targeting nanoparticle” (priority 2014, dated 2017)

Key:
[1] = Off-target toxicity in treated mice (weight, heart, liver)
Protocol: Relative cell survival (as % of untreated cells) on day 3 of treatment. (+Her), pre-incubation of MDA-MB-435 cells with receptor-blocking ligand (recombinant heregulin) before receiving HerDox. N=3. […] Tissues were harvested from independently injected mice euthanized at indicated time points after injection and fluorescence intensity/tissue acquired using a multimode imager. […] Bar, about 4 μm. […] Day 0=3 days before tail vein injections (mice received daily injections for 7 days). […] Day 0=3 days before tail vein injections (mice received daily injections for 7 days). […] Micrographs (20× magnification) in (E) also show representative H&E stained specimens of myocardia and immunofluorescent specimens of livers from treated mice. Green fluorescence in nuclei indicates apoptosis (positive TUNEL stain).

[2] = HerDox stability in cell culture media (agarose gel); assay type: in vitro ADME; conditions: serum-containing media, 37° C.
Protocol: FIG. 9 (C) illustrates that there is stability in cell culture. Aliquots of culture media containing HerDox (after incubation for the indicated times at 37° C.) were electrophoresed on a 2% agarose gel. HerDox incubated at 37° C. in HEPES-buffered saline, lacking serum, was processed in parallel. Dox fluorescence was visualized by UV excitation. Free Dox (Dox alone) is not retained in the gel whereas Dox incorporated in HerDox is. To align fluorescent bands with HerPBK10 and assess loading per lane, the gel was stained with Coomassie blue, which also identified serum protein from culture media samples.
By three days, HerDox reduced HER2+ cell numbers by over 75% whereas HER2− cell survival was unaffected (FIG. 7). […] These findings emphasize the importance of targeting by showing that the untargeted drug affects nontarget (i.e. HER2−) cells. […] To test receptor targeting, the inventors used free heregulin ligand (Her or eHRG) as a competitive inhibitor. […] As a final in vitro challenge, the inventors tested whether HerDox induces toxicity specifically to HER2+ cells in a mixed culture of HER2+ and HER2− breast cancer cells. To do this, the inventors produced a HER2− cell line tagged with green fluorescent protein (GFP) for cell identification in the mixed culture (FIG. 9-A). […]

[3] = tested on: parental and resistant cell lines (JIMT-1, BT-474, SKBR3); experiment: HerDox −/+ HER3 blocking peptide, cell survival; assay type: cell-based, human; conditions: equimolar HER3:HerPBK10, 48 hours
Protocol: (A)_-illustrates that resistance enhances HerDox toxicity. […] N=3. *, p<0.05 compared to parental. (B)_illustrates that resistance enhances HerDox toxicity. […] N=3. (C) illustrates contribution of HER3 to targeted toxicity. […] Treatments were compared to mock (saline)-treatment. […] N=3. *, p<0.05 compared to parental. […] N=3.
The contribution of HER3 to targeted toxicity was evaluated by assessing whether pre-adsorbing HerDox with a peptide comprising the ligand-binding domain of HER3 blocked cytotoxicity. […] In contrast, HerDox yielded dose-dependent cell death and eliminated up to 90% of the cells (FIG. 27-E).

[4] = tested on: GFP(+) MDA-MB-231 (HER2−); experiment: Targeting in a mixed cell culture; assay type: cell-based, human; conditions: 0.5 μM Dox, day 2
Protocol: (§1) FIG. 9 (A) illustrates targeting in a mixed cell culture.
(§2) FIG. 9 (B) further illustrates targeting in a mixed cell culture. Cell survival was determined by calculating the relative doubling time (DT) of experimental (exp) cells normalized by control (con) cells based on the crystal violet stains (total cells) and GFP fluorescence (MDA-MB-231 cells). The DT of MDA-MB-435 was determined by subtracting the DT of MDA-MB-231 from the total cell DT. Relative survival is shown for Day 2 of treatment.
(§3) By three days, HerDox reduced HER2+ cell numbers by over 75% whereas HER2− cell survival was unaffected (FIG. 7). […] These findings emphasize the importance of targeting by showing that the untargeted drug affects nontarget (i.e. HER2−) cells. […] To test receptor targeting, the inventors used free heregulin ligand (Her or eHRG) as a competitive inhibitor. […] As a final in vitro challenge, the inventors tested whether HerDox induces toxicity specifically to HER2+ cells in a mixed culture of HER2+ and HER2− breast cancer cells. To do this, the inventors produced a HER2− cell line tagged with green fluorescent protein (GFP) for cell identification in the mixed culture (FIG. 9-A). […] Altogether, these findings indicate that HerDox has the capacity to preferentially target toxicity to HER2+ cells. […] In serum-containing media, no such loss from HerDox is detectable. […]

[5] = tested on: MDA-MB-435 (non-GFP, HER2+); experiment: Targeting in a mixed cell culture; assay type: cell-based, human; conditions: 0.5 μM Dox, day 2
Protocol: as §1, §2, §3

[6] = tested on: HER2+ tumors; experiment: HerDox and Dox biodistribution (Dox fluorescence imaging)
Excerpt: FIG. 11 (A) depicts imaging of live mice after IV delivery of HerDox. Tumors are indicated by arrows.

[7] = tested on: JIMT-1 cell line; experiment: Tumor cell killing in culture, pre-existing resistance; assay type: cell-based, human; conditions: JIMT-1, dose-dependent, maximum
Protocol: N=3. *, p<0.05 compared to parental. […] N=3. […] Treatments were compared to mock (saline)-treatment. […] N=3. *, p<0.05 compared to parental. […] N=3.
The efficacy of HerDox was also examined on a cell line with pre-existing resistance.
The contribution of HER3 to targeted toxicity was evaluated by assessing whether pre-adsorbing HerDox with a peptide comprising the ligand-binding domain of HER3 blocked cytotoxicity.

[8] = tested on: MDA-MB-435 cells; experiment: Trastuzumab pre-treatment before HerDox, cell survival; assay type: cell-based, human; conditions: MDA-MB-435, 24 h pre-treatment
Excerpt: N=3. […] N=3. […] N=3. […] N=3. […] N=3. […] N=3.

[9] = tested on: SKBR3 trastuzumab-resistant cells; experiment: Tumor cell killing in culture; assay type: cell-based, human; conditions: 48-72 h after treatment
Protocol: FIG. 21 depicts graph that show the results of the administration of HerDox on various cells. […] N=3. *=p<0.05 compared to parental. […] N=3.
N=3. *, p<0.05 compared to parental. […] N=3. […] Parental and resistant cell lines were treated with HerDox−/+HER3 blocking peptide (ErbB3 human; Prospec), and tested for cell survival 48 hours later. […] Treatments were compared to mock (saline)-treatment. […] N=3. *, p<0.05 compared to parental. […] N=3.
Each therapeutic was administered at concentration ranges previously established for eliciting therapeutic efficacy.
Each therapeutic was administered at concentration ranges previously established or known in the art for eliciting therapeutic efficacy.

[10] = single tail vein injection, live imaging
[11] = tissues harvested ~3 h after injection

B1: HerDox: non-covalent complex of HerPBK10, double-stranded oligonucleotide and intercalated Dox (Unit A+Unit B+Unit C) (conjugate)
chain: SHLVKCAEKEKTFCVNGGECFMVKDLSNPSRYLCKCQPGFTGARCTENVPMKVQNQEKAEELYQKMRRAAMYEEGPPPSYESVVSAAPVAAALGSPFDAPLDPPFVPPRYLRPTGGRNSIRYSELAPLFDTTRVYLVDNKSTDVASLNYQNDHSNFLTTVIQNNDYSPGEASTQTINLDDRSHWGGDLKTILHTNMPNVNEFMFTNKFKARVMVSRLPTKDNQVELKYEWVEFTLPEGNYSETMTIDLMNNAIVEHYLKVGRQNGVLESDIGVKFDTRNFRLGFDPVTGLVMPGVYTNEAFHPDIILLPGCGVDFTHSRLSNLLGIRKRQPFQEGFRITYDDLEGGNIPALLDVDAYQASLKDDTEQGGGGAGGSNSSGSGAEENSNAAAAAMQPVEDMNDHAIRGDTFATRAEEKRAEAEAAAEAAAPAAQPEVEKPQKKPVIKPLTEDSKKRSYNLISNDSTFTQYRSWYLAYNYGDPQTGIRSWTLLCTPDVTCGSEQVYWSLPDMMQDPVTFRSTRQISNFPVVGAELLPVHSKSFYNDQAVYSQLIRQFTSLTHVFNRFPENQILARPPAPTITTVSENVPALTDHGTLPLRNSIGGVQRVTITDARRRTCPYVYKALGIVSPRVLSSRTFKKKKKKKKKK
modifications: left off: small tags and cut ends
Q: Which “cardiac function (echocardiograms)” value ([1]; 25 days following injections) does the source give for B1 here?
A: no effect on these measurements

Q: What about the “liver and heart toxicity” value ([1]; systemic delivery in vivo) of the same molecule?
A: avoiding liver and heart toxicity

Q: What about the “loss of Dox fluorescence from conjugate in culture media” value [2] of the same molecule?
A: no such loss

Q: And the “cell death after pre-adsorbing with HER3 peptide” value [3]?
A: inhibited by the HER3 peptide

Q: And the “GFP (HER2−) cell growth in mixed culture” value [4]?
A: not altered

Q: And the “non-GFP (HER2+) cell proliferation in mixed culture” value [5]?
A: nearly completely reduced

Q: And the “time fluorescence remained detectable in the tumors” value [6, 10]?
A: up to 100 min

Q: What about the “time of fluorescence accumulation at the tumors” value [6, 10] of the same molecule?
A: ≤ 20 min

Q: What about the fluorescence in kidneys [6, 11] of the same molecule?
A: barely detectable

Q: And the fluorescence in liver [6, 11]?
A: substantially lower levels of fluorescence

Q: And the “fluorescence in other tissues (heart, spleen, lungs, skeletal muscle)” value [6, 11]?
A: did not exhibit any fluorescence

Q: What about the fluorescence in tumors [6, 11] of the same molecule?
A: intense fluorescence in the tumors

Q: And the cells killed [7]?
A: up to 90%

Q: What about the “enhancement of HerDox toxicity by trastuzumab pre-treatment” value [8] of the same molecule?
A: modest enhancement in toxicity

Q: What about the cell death [9] of the same molecule?
A: > 80%
